From publication PMC8316464, “Structures of the ApoL1 and ApoL2 N-terminal domains reveal a non-classical four-helix bundle motif” (Communications Biology, 2021) come the findings set out here.

For assay [1], the target named is T1, full-length ApoL1 with N-terminal flag-tag (human, UniProt O14791-1).
T1 construct: also called Apolipoprotein L1; not shown: FLAG, N-terminal, kept
Briefly: SPR; Biacore T200; anti-ApoL1 antibodies captured (~250 RU) by anti-murine Fc antibody on a CM5 chip; ApoL1 0.8–500 nM injected in HBS-P (10 mM HEPES pH 7.4, 150 mM NaCl, 0.005% P20) at 37 °C, 100 µl/min; 1:1 Langmuir model; KD = koff/kon. The following applies: both partners purified. (In general: Surface plasmon resonance follows binding to a sensor surface in real time, without labels.)

A further assay deals with T2, ApoL3-Myc-Flag (Homo sapiens, UniProt O95236).
T2 construct: Apolipoprotein L3, human; The homology model (not this construct) used isoform 1, NP_663615.1; source: COS7, transiently transfected; in lysate (immunoprecipitation) or in fixed, permeabilized cells (immunofluorescence); not shown: Myc, C-terminal, kept; FLAG, C-terminal, kept
T2 sequence (O95236 whole entry, canonical isoform): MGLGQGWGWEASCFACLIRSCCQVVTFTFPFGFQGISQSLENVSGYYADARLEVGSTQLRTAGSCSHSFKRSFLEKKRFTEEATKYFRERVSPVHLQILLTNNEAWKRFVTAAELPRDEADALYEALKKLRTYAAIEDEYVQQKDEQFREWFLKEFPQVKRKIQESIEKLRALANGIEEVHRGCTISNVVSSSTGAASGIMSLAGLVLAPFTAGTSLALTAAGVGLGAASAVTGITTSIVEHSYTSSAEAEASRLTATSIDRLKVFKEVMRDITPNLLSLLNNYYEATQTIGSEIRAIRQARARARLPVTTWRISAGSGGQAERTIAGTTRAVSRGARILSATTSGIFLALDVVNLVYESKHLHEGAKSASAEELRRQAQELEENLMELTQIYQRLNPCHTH
Description: immunoprecipitation; 20 µg antibody pre-immobilised on Dynabeads Protein G, incubated 20 min at RT with M-PER lysates of cells expressing ApoL1-6 (35 µg total protein for ApoL1-3, 500 µg for ApoL4-6); four washes PBS/0.02% Tween-20; blot with anti-ApoL1/2 or anti-Myc. The following applies: one partner purified.

Assay [2] concerns the target T3, human untagged ApoL2 expressed in COS7 cells (Homo sapiens, UniProt Q9BQE5).
T3 construct: Apolipoprotein L2, human, untagged; source: COS7, transiently transfected; in lysate (immunoprecipitation) or in fixed, permeabilized cells (immunofluorescence)
The assay is described as above. To be noted: one partner purified.

The next assay deals with T4, Bfl-1 (human, UniProt Q16548 1-175).
T4 construct: Bfl-1 (Bcl-2-related protein A1), human recombinant; also called Bcl-2-related protein A1; source: bought: R&D Systems
T4 sequence (looked up): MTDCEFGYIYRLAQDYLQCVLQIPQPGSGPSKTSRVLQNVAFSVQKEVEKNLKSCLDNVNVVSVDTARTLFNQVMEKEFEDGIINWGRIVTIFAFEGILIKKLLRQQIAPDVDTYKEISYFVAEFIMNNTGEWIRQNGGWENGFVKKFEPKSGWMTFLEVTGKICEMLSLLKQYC
Description: SPR; Biacore S200; Bcl-2 family proteins immobilised on CM5 (amine coupling or His-Capture Kit); peptides and flag-tagged proteins as analytes, single-cycle kinetics, HBS-EP, 25 °C; 1:1 Langmuir model; absence of binding probed at 100 nM and 3 µM. To be noted: both partners purified.

The target of another assay is T5, Bcl-w (human, UniProt Q92843 1-193).
T5 construct: Bcl-w, human recombinant; source: bought: R&D Systems
T5 sequence (looked up): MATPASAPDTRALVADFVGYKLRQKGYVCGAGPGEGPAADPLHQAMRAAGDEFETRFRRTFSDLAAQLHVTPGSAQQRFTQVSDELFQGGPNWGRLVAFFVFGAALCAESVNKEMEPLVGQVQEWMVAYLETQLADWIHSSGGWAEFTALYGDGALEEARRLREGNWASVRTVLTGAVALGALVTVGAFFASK
The description is as above. The following applies: both partners purified.

Assay [3] addresses T6, ApoL1-peptide (BH3-like peptide E152–H169) (human, UniProt O14791).
T6 construct: Apolipoprotein L1, human, residues E152-H169; also called ApoL1-BH3 peptide; BH3 peptide; source: synthetic peptide (NEO Scientific)
T6 chain: EDNIRRLRALADGVQKVH
Briefly: crystal structure; Fab complexes formed with 1.5 molar excess of NTD and purified on Superdex-200 in 0.15 M NaCl, 25 mM Tris pH 8.0, about 10 mg/ml; Fab7D6 also crystallised with the synthetic peptide E152–H169. The following applies: both partners purified.

Assay [4] has as its target T7, flag-tagged ApoL1-NTD (D61–T172) (human, UniProt O14791).
T7 construct: Apolipoprotein L1, human, N-terminal domain residues D61-T172; E150 variant; the tag is said to be removed only for X-ray studies; source: Sf9 insect cells (baculovirus), purified (anti-flag resin, S75 size exclusion)
Briefly: SEC-MALS; XBridge BEH 200 Å column in PBS, 0.02% sodium azide, 1 ml/min; complex formed with a twofold molar excess of ApoL1-NTD (46.8 µM) over Fab7D6, 30 min at room temperature; components also run alone. The following applies: both partners purified. (SEC sorts molecules by how far they enter the pores of the column.)

The next assay concerns the target T8, ApoL4-Myc (Homo sapiens, UniProt Q9BPW4).
T8 construct: Apolipoprotein L4, human; The homology model (not this construct) used isoform 2, NP_663693; source: COS7, transiently transfected; in lysate (immunoprecipitation) or in fixed, permeabilized cells (immunofluorescence); not shown: Myc, C-terminal, kept
Description: immunostaining of cells or tissue; transiently transfected COS7 cells fixed (3% paraformaldehyde) and permeabilized (0.1% Triton-X-100); mouse anti-ApoL1 antibodies at 2 µg/ml in PBS, 1 h, room temperature; Alexa488-anti-mouse; co-stained with anti-myc. The following applies: one partner purified.

Assay [5] addresses T9, ApoL2-NTD (N2-T113), His tag removed (human, UniProt Q9BQE5).
T9 construct: Apolipoprotein L2, human, N-terminal domain residues N2-T113, Genbank NP_112092.2; source: Sf9 insect cells (baculovirus), purified (Ni resin, S75, TEV digestion, S75)
Description: crystal structure; Fab complexes formed with 1.5 molar excess of NTD and purified on Superdex-200 in 0.15 M NaCl, 25 mM Tris pH 8.0, about 10 mg/ml; Fab7D6 also crystallised with the synthetic peptide E152–H169. The following applies: both partners purified.

T1 sequence (O14791 28-398): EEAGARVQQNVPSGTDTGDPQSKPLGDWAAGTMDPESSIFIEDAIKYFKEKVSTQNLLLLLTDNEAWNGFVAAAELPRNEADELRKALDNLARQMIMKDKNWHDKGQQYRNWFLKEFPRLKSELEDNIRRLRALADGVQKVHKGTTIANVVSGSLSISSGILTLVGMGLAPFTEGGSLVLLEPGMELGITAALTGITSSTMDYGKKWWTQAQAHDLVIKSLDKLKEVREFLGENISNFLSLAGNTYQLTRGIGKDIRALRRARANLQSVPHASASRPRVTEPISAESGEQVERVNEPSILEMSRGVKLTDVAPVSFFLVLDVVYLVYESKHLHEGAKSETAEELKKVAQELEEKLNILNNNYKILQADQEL
T3 sequence (Q9BQE5 whole entry): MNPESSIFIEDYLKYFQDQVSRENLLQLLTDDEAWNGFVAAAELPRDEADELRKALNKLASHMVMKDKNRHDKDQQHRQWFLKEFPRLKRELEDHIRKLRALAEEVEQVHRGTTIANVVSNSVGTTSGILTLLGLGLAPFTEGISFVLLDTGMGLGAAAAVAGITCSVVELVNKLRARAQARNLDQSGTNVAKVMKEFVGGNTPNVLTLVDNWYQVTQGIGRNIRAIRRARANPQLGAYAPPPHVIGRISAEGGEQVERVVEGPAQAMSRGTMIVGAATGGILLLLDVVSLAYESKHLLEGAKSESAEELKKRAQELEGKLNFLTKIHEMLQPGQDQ
T9 sequence (Q9BQE5 other isoform, or with tags, fused parts or gaps): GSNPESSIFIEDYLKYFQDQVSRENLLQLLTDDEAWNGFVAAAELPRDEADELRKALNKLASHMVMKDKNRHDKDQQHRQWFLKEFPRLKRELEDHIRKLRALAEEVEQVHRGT
T7 sequence (O14791 61-172): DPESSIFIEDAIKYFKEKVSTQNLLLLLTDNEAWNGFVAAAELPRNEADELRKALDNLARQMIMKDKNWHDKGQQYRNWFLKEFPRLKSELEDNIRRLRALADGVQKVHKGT
T8 sequence (Q9BPW4 22-351): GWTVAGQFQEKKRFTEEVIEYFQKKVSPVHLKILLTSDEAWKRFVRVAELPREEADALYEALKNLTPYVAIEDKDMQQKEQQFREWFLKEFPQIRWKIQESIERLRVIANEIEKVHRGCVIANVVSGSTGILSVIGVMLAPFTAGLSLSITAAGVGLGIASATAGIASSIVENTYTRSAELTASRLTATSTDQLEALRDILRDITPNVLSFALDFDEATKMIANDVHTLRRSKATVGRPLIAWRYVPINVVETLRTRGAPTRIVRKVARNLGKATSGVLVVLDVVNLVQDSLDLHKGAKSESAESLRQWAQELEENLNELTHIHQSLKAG

B1: Ab3B6 (antibody, V domains shown)
VH: QVQLQQSGAELARPGASVKLSCKASGYTFTSHWMQWLKQRPGQGLEWIGAIYPGDGDTKFTQKFKDKATLTADKSSTTAYMQLSSLASEDSAVYYCARENLYGYYFDYWGQGTTLTVSS
VL: QAVVTQESALTTSPGETVTLTCRSSTGAVTSGNFANWVQEKPDHLFTGLIGGADNRAPGVPARFSGSLIGDKAALIITGAQTEDEAIYFCALWYSDHWVFGGGTKLTVL
notes: mouse VH, as the variable part of the heavy chain of m2; mouse heavy chain constant region; mouse VL, as the variable part of the light chain of m2; mouse light chain constant region; Mouse anti-human ApoL1 antibody; also called 3.3B6
B1: in assay [1], the dissociation constant (Kd) stood at 1.56 nM. Further, the binding result (with ApoL3-Myc-Flag; in assay [2]) was “binds” in each case.

B2: Bid BH3 peptide (25-mer, residues 77-101) (peptide)
peptide: ESQEDIIRNIARHLAQVGDSMDRSI
notes: Bid, BH3-only motif, residues 77-101; source: synthetic peptide (ABclonal, >95% purity)
In the case of B2, the Kd came to 0.31 nM in the assay with Bfl-1 and 24.2 nM with Bcl-w.

B3: Bid (A87I) peptide (peptide)
peptide: ESQEDIIRNIIRHLAQVGDSMDRSI
notes: source: synthetic peptide (ABclonal, >95% purity)
Regarding B3, the figures for the dissociation constant (Kd) in the assay with Bfl-1 and in the assay with Bcl-w were 1430 nM and 65.2 nM, respectively.

B4: Fab7D6 (Fab, V domains shown)
VH: QIQLVQSGPDLKKPGETVKISCRTSGYAFTNYGVNWVKQAPGKGLKWMGWINTNTGQTTYAEEFRGRFAISLETSASTAFLTISNLKNEDSATYFCARLIYDGDYISSDFWGQGTTLTVSS
VL: DIQMTQSPDSLSASVGETVTITCGASENIYGALNWYQRKQGKSPQLLIYGATNLADGMSSRFSGSRSGRQYSLKISSLHPDDVATYYCQNALSMPYTFGGGTNLETK
notes: Chimeric Fab: mouse variable domains on human constant domains; also called Fab of Ab7D6; 3.7D6 Fab; source: E. coli strain 64B4, secreted into the periplasm, purified (protein G, SP Sepharose, Superdex 75)
Regarding B4, the binding result in assay [3] is “binds”. Moreover, the “stoichiometry N” value in [4] amounted to 1.

B5: Ab7D6 (antibody, V domains shown)
VH: QIQLVQSGPDLKKPGETVKISCRTSGYAFTNYGVNWVKQAPGKGLKWMGWINTNTGQTTYAEEFRGRFAISLETSASTAFLTISNLKNEDSATYFCARLIYDGDYISSDFWGQGTTLTVSS
VL: DIQMTQSPDSLSASVGETVTITCGASENIYGALNWYQRKQGKSPQLLIYGATNLADGMSSRFSGSRSGRQYSLKISSLHPDDVATYYCQNALSMPYTFGGGTNLETK
notes: mouse VH, as the variable part of the heavy chain of m3; mouse heavy chain constant region; mouse VL, as the variable part of the light chain of m3; mouse light chain constant region; Mouse anti-human ApoL1 antibody; also called 3.7D6
In turn, B5 came in with a Kd in [1] of 1.63 nM.

B6: Ab6D12 (antibody, V domains shown)
VH: EVMLVESGGGLVRPGGSLKLSCTASGFTFSRCAMSWVRQTPEKRLEWVSAISRDSTYTYYSDSVKGRFTVSRDNAKNTLYLQMSSLRSEDTAMYYCARQIDDYYVDALDYWGQGTSVTVSS
VL: DVQITQSPSYLAASPGETITINCRASKIISKYLAWYQEKPGKTIKLLIYSGFTLQSGIPSRFSGSGSGTDFTLTISSLEPEDFAMYYCQQHNEYPLTFGAGTKLEIK
notes: mouse VH, as the variable part of the heavy chain of m1; mouse heavy chain constant region; mouse VL, as the variable part of the light chain of m1; mouse light chain constant region; Mouse anti-human ApoL1 antibody; also called 3.6D12; murine Ab6D12
On to B6, for which the binding result (with ApoL4-Myc; in the assay with ApoL3-Myc-Flag; in assay [2]) was “binds” each time. Besides, the Kd in assay [1] was 0.86 nM.

B7: Fab6D12 (Fab, V domains shown)
VH: EVMLVESGGGLVRPGGSLKLSCTASGFTFSRCAMSWVRQTPEKRLEWVSAISRDSTYTYYSDSVKGRFTVSRDNAKNTLYLQMSSLRSEDTAMYYCARQIDDYYVDALDYWGQGTSVTVSS
VL: DVQITQSPSYLAASPGETITINCRASKIISKYLAWYQEKPGKTIKLLIYSGFTLQSGIPSRFSGSGSGTDFTLTISSLEPEDFAMYYCQQHNEYPLTFGAGTKLEIK
notes: Chimeric Fab: mouse variable domains on human constant domains; also called Fab of Ab6D12; 3.6D12 Fab; source: E. coli strain 64B4, secreted into the periplasm, purified (protein G, SP Sepharose, Superdex 75)
As for B7, the binding result in [5] is “binds”.

B8: Bim (A149I) peptide (peptide)
peptide: DMRPEIWIIQELRRIGDEFNAYYAR
notes: also called Bim (A149A) (as printed in the methods); source: synthetic peptide (ABclonal, >95% purity)
As for B8, the Kd with Bfl-1 worked out at 18.8 nM; in the assay with Bcl-w, 23.1 nM.

Usually Kd stands for a measure of binding affinity in units of concentration. A word on the stoichiometry N: it is a count of units in the complex or per binding partner.
